# From patent US20230374068A1, “COMPOSITIONS AND METHODS FOR TREATING A DISEASE” (RAMOT AT TEL AVIV UNIVERSITY LTD., priority 2021, published 2023)
# T1: T7-RILP(L231A) (pEF-T7-RILP(L231A)) (mouse, UniProt Q5ND29 1-369)
# T1 construct: RHD mutant; expressed in transfected RBL cells
# T1 sequence (looked up): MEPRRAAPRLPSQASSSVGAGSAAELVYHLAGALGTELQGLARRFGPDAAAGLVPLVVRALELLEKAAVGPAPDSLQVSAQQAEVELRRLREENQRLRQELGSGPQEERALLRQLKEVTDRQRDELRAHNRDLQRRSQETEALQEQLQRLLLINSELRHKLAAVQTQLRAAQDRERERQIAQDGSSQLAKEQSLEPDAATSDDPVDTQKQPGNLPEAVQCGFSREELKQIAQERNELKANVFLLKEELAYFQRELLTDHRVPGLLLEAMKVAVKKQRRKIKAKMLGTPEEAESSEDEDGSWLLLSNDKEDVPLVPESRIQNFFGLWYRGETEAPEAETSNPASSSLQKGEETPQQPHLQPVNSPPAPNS
# T2: T7-RILP(E233A) (pEF-T7-RILP(E233A)) (mouse, UniProt Q5ND29 1-369)
# T2 construct: RHD mutant; expressed in transfected RBL cells
# T2 sequence (looked up): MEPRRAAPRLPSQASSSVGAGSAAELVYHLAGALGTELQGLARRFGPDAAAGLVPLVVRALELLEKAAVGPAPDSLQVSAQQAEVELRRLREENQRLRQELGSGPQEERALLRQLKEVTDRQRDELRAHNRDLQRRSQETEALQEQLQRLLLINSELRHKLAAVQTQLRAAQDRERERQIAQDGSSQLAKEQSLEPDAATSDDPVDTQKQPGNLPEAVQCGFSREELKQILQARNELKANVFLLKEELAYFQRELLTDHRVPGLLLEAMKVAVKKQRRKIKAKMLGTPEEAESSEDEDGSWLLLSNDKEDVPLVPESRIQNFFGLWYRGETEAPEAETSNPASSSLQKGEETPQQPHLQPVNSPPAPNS
# T3: T7-RILP-L1 (pEF-T7-RILP-L1) (mouse, UniProt Q9JJC6 1-406)
# T3 construct: The pEF-T7 plasmid was 'prepared as previously described'; also called T7-tagged RILP-L1; RILP-like 1
# T3 sequence (looked up): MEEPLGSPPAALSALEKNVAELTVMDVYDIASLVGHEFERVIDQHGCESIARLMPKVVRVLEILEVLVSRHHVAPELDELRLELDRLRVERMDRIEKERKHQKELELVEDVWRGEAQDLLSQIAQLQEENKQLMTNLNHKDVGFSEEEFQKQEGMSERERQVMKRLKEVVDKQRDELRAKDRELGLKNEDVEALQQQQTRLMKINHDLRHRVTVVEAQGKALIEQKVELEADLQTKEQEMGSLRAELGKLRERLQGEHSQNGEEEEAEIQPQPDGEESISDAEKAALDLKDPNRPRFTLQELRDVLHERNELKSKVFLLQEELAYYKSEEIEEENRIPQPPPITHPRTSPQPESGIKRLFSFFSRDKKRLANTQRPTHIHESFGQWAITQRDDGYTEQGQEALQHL
# T4: endogenous Rab12 of RBL cells (rat, UniProt P35284 49-291, limits assumed)
# T4 construct: Total Rab12 pulled down from cell lysates (blot reprobed with anti-Rab12)
# T4 sequence (looked up): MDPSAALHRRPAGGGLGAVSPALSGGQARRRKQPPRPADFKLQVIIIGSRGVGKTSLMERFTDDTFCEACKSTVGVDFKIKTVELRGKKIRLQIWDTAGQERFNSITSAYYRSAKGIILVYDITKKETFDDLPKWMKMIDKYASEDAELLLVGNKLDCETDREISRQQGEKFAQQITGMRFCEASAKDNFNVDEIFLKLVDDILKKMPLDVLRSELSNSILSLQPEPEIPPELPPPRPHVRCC
# T5: GFP-RILP-L1 (mouse RILP-like 1 in pEGFP-C1) (mouse, UniProt Q9JJC6 1-406)
# T5 construct: Expressed in transfected RBL cells; tested in cell lysate; also called pEGFP-C1-RILP-L1; not shown: EGFP of the pEGFP-C1 vector
# T5 sequence (looked up): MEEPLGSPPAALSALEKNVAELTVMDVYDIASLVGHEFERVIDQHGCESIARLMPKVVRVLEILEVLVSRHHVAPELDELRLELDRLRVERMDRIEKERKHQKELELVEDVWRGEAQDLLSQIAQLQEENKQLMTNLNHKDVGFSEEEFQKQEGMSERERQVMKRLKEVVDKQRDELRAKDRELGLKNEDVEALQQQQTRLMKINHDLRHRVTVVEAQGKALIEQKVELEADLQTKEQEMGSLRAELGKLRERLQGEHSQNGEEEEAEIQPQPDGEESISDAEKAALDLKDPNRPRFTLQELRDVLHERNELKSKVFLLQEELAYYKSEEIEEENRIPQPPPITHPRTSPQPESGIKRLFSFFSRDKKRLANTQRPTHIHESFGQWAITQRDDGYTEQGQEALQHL
# B1: GFP-RILP (mouse RILP in pEGFP-C1) (other, UniProt Q5ND29 1-369, looked up)
# chain: MEPRRAAPRLPSQASSSVGAGSAAELVYHLAGALGTELQGLARRFGPDAAAGLVPLVVRALELLEKAAVGPAPDSLQVSAQQAEVELRRLREENQRLRQELGSGPQEERALLRQLKEVTDRQRDELRAHNRDLQRRSQETEALQEQLQRLLLINSELRHKLAAVQTQLRAAQDRERERQIAQDGSSQLAKEQSLEPDAATSDDPVDTQKQPGNLPEAVQCGFSREELKQILQERNELKANVFLLKEELAYFQRELLTDHRVPGLLLEAMKVAVKKQRRKIKAKMLGTPEEAESSEDEDGSWLLLSNDKEDVPLVPESRIQNFFGLWYRGETEAPEAETSNPASSSLQKGEETPQQPHLQPVNSPPAPNS
# notes: Expressed in transfected RBL cells; tested in cell lysate; also called GFP-fused RILP; pEGFP-C1-RILP; not shown: EGFP of the pEGFP-C1 vector
# What was measured:
# [1] = target: T1, T7-RILP(L231A) (pEF-T7-RILP(L231A)); assay: cell-based or functional assay
# [2] = target: T7-RILP (pEF-T7-RILP) (mouse) (UniProt Q5ND29); assay: cell-based or functional assay
# [3] = target: T1, T7-RILP(L231A) (pEF-T7-RILP(L231A)); assay: GST-Rab12 pulldown from RBL cell lysates with GTPgammaS, anti-T7 immunoblot
# Experimental: (§1) Bound proteins were eluted by sample buffer, and analyzed by SDS-PAGE and immunoblotting, using monoclonal antibodies directed against T7. Input=10% of total protein. A representative blot is shown. […] The results are the average pulldown±SEM derived from three independent experiments. *P[(T7-RILP/T7-RILP(L231A)]=0.0480, *P[T7-RILP/T7-RILP(E233A)]=0.0498.
# (§2) Pulldown assays were performed as previously described 2. Briefly, 20 μg of GST fusion proteins or control GST immobilized on Glutathione Agarose beads were incubated for 18 hours at 4° C. with RBL cell lysates (500 μg) prepared in buffer C (50 mM Hepes pH 7.4, 150 mM NaCl, 1 mM MgCl₂, 1% TritonX100, 1 mM PMSF, protease inhibitor mixture, 2 mM Na₃VO₄) in the presence of 0.5 mM GTPγS. At the end of the incubation period, beads were sedimented by centrifugation at 5000×g for 5 minutes at 4° C., washed 4 times in buffer C with 0.2% TritonX100, and finally suspended in sample buffer, boiled for 7 minutes, and subjected to SDS-PAGE and immunoblotting. In pulldown experiments of endogenous phosphoRab12, cell lysates were prepared in buffer D (50 mM Hepes pH 7.4, 150 mM NaCl, 1 mM MgCl₂, 1% TritonX100, 1 mM PMSF, protease inhibitor mixture, 2 mM Na₃VO₄, 10 mM NaPPi and 80 mM β-glycerophosphate) and the pulldown assay was conducted in the absence of GTPγS. Beads were washed in buffer D with 0.2% TritonX100.
# [4] = target: T2, T7-RILP(E233A) (pEF-T7-RILP(E233A)); assay: as above
# Experimental: as §1, §2
# [5] = target: T3, T7-RILP-L1 (pEF-T7-RILP-L1); assay: co-immunoprecipitation from co-transfected RBL cell lysates, IP anti-GFP, blot anti-T7
# Experimental: (§3) FIGS. 1A, 1B show the results of immunoprecipitations in which cell lysates derived from the rat mast cell line RBL-2H3, herein referred to as RBL cells, that were co-transfected with 17.5 μg of pEGFP plasmid encoding either RILP, RILP-L1 or RILP-L2 and 17.5 μg of pEF plasmid encoding either T7-RILP, T7-RILP-L1 or T7-RILP-L2, as indicated, were subjected to immunoprecipitation with rabbit polyclonal antibodies directed against GFP. FIGS. 1C, 1D show the results of immunoprecipitations in which the RBL cell lysates described above were subjected to immunoprecipitation with mouse monoclonal antibodies directed against the T7 epitope. Immune complexes were then analyzed by SDS-PAGE and immunoblotting with mouse monoclonal anti T7 antibodies, followed by reprobing with polyclonal anti GFP antibodies (FIGS. 1A, 1B), or with polyclonal anti GFP antibodies followed by reprobing with monoclonal anti T7 antibodies (FIGS. 1C, 1D), as indicated. Input=10% of total protein.
# (§4) RBL cell lysates (500 μg) prepared in buffer A (50 mM Hepes pH 7.4, 250 mM NaCl, 1 mM MgCl₂, 1% Triton X-100, protease inhibitor mixture, 1 mM PMSF, 2 mM Na₃VO₄) were incubated overnight at 4° C. with either rabbit polyclonal anti-GFP antibodies (2 μg) or mouse monoclonal anti-T7 antibodies (1 μg). Protein A/G-Sepharose (50% v/v) was then added for 1.5 h at 4° C. Immune complexes were collected, washed three times with buffer B (50 mM Hepes pH 7.4, 150 mM NaCl, 1 mM MgCl₂, 0.2% Triton X-100, protease inhibitor mixture, 1 mM PMSF, 2 mM Na₃VO₄), and resuspended in 1× sample buffer, and boiled for 7 min. Proteins were resolved by SDS-PAGE and analyzed by immunoblotting with the desired antibodies.
# [6] = target: T4, endogenous Rab12 of RBL cells; assay: GST pulldown of endogenous Rab12 from RBL cell lysates, anti-Rab12 immunoblot
# Experimental: Cells were then lysed and 500 μg of cell lysate were incubated overnight at 4° C. with either GST, GST-RILP, GST-RILP-L1 or GST-RILP-L2, immobilized on glutathione agarose beads, as indicated. At the end of the incubation period, beads were sedimented by centrifugation at 5000×g for 5 minutes at 4° C., washed four times with buffer containing 50 mM Hepes pH 7.4, 150 mM NaCl, 1 mM MgCl₂, 0.2% Triton X-100, protease inhibitor mixture, 1 mM PMSF, 2 mM Na₃VO₄, 10 mM NaPPi and 80 mM β-glycerophosphate and suspended in 1× sample buffer and boiled for 7 minutes. Proteins were resolved by SDS-PAGE and analyzed by immunoblotting with the anti-phosphoRab12 antibodies, followed by reprobing with anti Rab12 antibodies, as indicated. Representative blots are shown. Similar results were obtained in two separate experiments.
# Next, it was assessed whether […] any impact on Rab12 interactions with its RILP family effectors. To this end, lysates derived from resting RBL cells or RBL cells that were triggered with either IgE/Ag or Ion/TPA, were subjected to pulldown assays by chimeric proteins consisting of GST-fused to either RILP, RILP-L1, or RILP-L2, or control GST. […] Therefore, under these conditions, the efficacy of Rab12-effector interactions was RILP-L1>RILP>>>RILP-L2.
# [7] = target: B1; assay: co-immunoprecipitation from co-transfected RBL cell lysates, IP anti-GFP, blot anti-T7
# Experimental: as §3, §4
# [8] = target: T5, GFP-RILP-L1 (mouse RILP-like 1 in …); assay: as above
# Experimental: as §3, §4
molecule,measurement,setting,value
GFP-Rab12 (pEGFP-C1-Rab12) (from UniProt P35283 49-291),"incidence of cells with scattered secretory granules (NPY-mRFP), confocal microscopy of RBL cells",[1],97%
same,"incidence of cells with perinuclear secretory granules (NPY-mRFP), confocal microscopy of RBL cells",[2],99%
"GST-Rab12 (pGEX-4T-3-Rab12) (other, mouse, UniProt P35283 49-291, looked up, Immobilized on glutathione agarose beads; pulldown in the presence of 0.5 mM GTPgammaS; also called immobilized Rab12; not shown: glutathione S-transferase (GST) encoded by the pGEX-4T-3 vector) MDPSAALHRRPAGGSLGAVSPALSGGQARRRKQPPRPADFKLQVIIIGSRGVGKTSLMERFTDDTFCEACKSTVGVDFKIKTVELRGKKIRLQIWDTAGQERFNSITSAYYRSAKGIILVYDITKKETFDDLPKWMKMIDKYASEDAELLLVGNKLDCETDREISRQQGEKFAQQITGMRFCEASAKDNFNVDEIFLKLVDDILKKMPLDVLRNELSNSILSLQPEPEIPPELPPPRPHVRCC",binding result,[3],no binding
same,binding result,[4],no binding
B1,binding result,[5],no binding
"GST-RILP-L2 (pGEX-4T-3-RILP-L2) (other, mouse, UniProt Q99LE1 1-197, looked up, Immobilized on glutathione agarose beads; not shown: glutathione S-transferase (GST) encoded by the pGEX-4T-3 vector) MEDHPVREEEDGEEDEGALAKSPLQLTTDDVYDISYVVGRELMALGSDPRVTRLQFKIVRVMEMLETLVNEGSLAVEELRMERDNLKQEVEGLRKAGVSGAQVNLGPDKMVVDLTDPNRPRFTLQELREVLQERNKLKSQLLLVQEELQCYRSGLLPPRETPGGRREKDAVVAMGNGEKEERTIMKKLFSFRSGKHT","fold increase in Rab12 pulldown, Ion/TPA-triggered against resting cells",[6],4 fold
"T7-RILP-L2 (pEF-T7-RILP-L2) (other, mouse, UniProt Q99LE1 1-197, looked up, not shown: small tags and cut ends, The pEF-T7 plasmid was 'prepared as previously described'; also called T7-tagged RILP-L2; RILP-like 2) MEDHPVREEEDGEEDEGALAKSPLQLTTDDVYDISYVVGRELMALGSDPRVTRLQFKIVRVMEMLETLVNEGSLAVEELRMERDNLKQEVEGLRKAGVSGAQVNLGPDKMVVDLTDPNRPRFTLQELREVLQERNKLKSQLLLVQEELQCYRSGLLPPRETPGGRREKDAVVAMGNGEKEERTIMKKLFSFRSGKHT",binding result,[7],no binding
same,binding result,[8],no binding
